Publication PMC12556795

Tests used:
[1] = biological target: DCC C-tail ΔP3 protein (residues 1121-1424) (H. sapiens) (UniProt P43146); assay: other fluorescence titration; initial fluorescence read on the MST instrument; Cy5-labelled ΔP3 at 5 nM, 60S subunits titrated from 5 uM to 0.15 nM; 20 mM Tris-HCl pH 7.5, 100 mM KCl, 2 mM Mg(OAc)2, 1 mM DTT, 0.5 mM EDTA, 0.25 M sucrose; 25 °C; 1:1 binding model; KD values called relative
[2] = biological target: DCC C-tail ΔN29+P1 protein (residues 1168-1447) (H. sapiens) (UniProt P43146); assay: MST; Cy5-labelled DCC protein (target) at 5 nM, purified 60S subunits (ligand) titrated from 5 uM to 0.15 nM over 16 capillaries; 20 mM Tris-HCl pH 7.5, 100 mM KCl, 2 mM Mg(OAc)2, 1 mM DTT, 0.5 mM EDTA, 0.25 M sucrose; 25 °C; 1:1 binding model; KD values called relative, not absolute (limited by 60S solubility)
[3] = biological target: DCC C-tail N29+P1 protein (residues 1121-1167) (H. sapiens) (UniProt P43146); assay: as above
[4] = biological target: 60S ribosomal subunit (rabbit) (rabbit (endogenous in reticulocyte lysate)) (UniProt P19949)
[5] = biological target: 60S ribosomal subunit (rabbit) (rabbit (endogenous in reticulocyte lysate)) (UniProt P19949); remark: listed apart in the source

Chain of DCC C-tail ΔN29+P1 protein (residues 1168-1447) (H. sapiens) (P43146 1168-1447, stated change not applied): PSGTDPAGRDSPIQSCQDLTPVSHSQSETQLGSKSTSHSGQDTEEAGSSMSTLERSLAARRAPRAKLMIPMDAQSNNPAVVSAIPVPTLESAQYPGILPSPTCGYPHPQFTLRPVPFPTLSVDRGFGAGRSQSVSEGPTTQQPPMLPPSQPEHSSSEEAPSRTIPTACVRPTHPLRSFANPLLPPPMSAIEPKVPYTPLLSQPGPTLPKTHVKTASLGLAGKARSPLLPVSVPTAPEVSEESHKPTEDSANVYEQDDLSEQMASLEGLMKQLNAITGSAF
Chain of DCC C-tail ΔP3 protein (residues 1121-1424) (H. sapiens) (P43146 1121-1424, stated change not applied): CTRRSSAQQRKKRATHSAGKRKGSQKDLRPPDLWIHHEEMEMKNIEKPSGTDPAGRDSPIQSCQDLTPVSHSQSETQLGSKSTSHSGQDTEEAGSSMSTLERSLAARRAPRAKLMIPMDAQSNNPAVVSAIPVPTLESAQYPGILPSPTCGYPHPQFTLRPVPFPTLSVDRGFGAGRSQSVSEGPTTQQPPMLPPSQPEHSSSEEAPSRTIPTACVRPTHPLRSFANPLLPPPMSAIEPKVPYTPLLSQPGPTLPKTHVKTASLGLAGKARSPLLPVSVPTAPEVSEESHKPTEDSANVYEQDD
Chain of DCC C-tail ΔP3 protein (residues 1121-1424) (P43146 1121-1424, stated change not applied): as above
Chain of DCC C-tail N29+P1 protein (residues 1121-1167) (H. sapiens) (P43146 1121-1167): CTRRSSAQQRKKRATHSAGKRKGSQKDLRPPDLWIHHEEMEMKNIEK
Chain of DCC C-tail N29+P1 protein (residues 1121-1167) (P43146 1121-1167): as above

60S ribosomal subunit (rabbit) (from UniProt P19949 1-297) (complex)
Kd [1]: 68.4 nM
Kd [2]: 285 nM
Kd [3]: 80.1 nM

DCC C-tail N29+P1 KRK→AAA protein (residues 1121-1167, alanines at 1140 to 1142) (from UniProt P43146 1121-1167) (domain or fragment)
decrease of in vitro translation of a luciferase reporter mRNA in rabbit reticulocyte lysate by the DCC protein (3 and 6 μM) (% decrease of translation) [4]: 20

DCC C-tail N29+P1 protein (residues 1121-1167) (from UniProt P43146 1121-1167) (domain or fragment)
decrease of in vitro translation of a luciferase reporter mRNA in rabbit reticulocyte lysate by the DCC protein (3 and 6 μM) (% decrease of translation) [4]: 90

DCC C-tail ΔP3 protein (residues 1121-1424) (from UniProt P43146 1121-1424) (domain or fragment)
inhibition of in vitro translation of a luciferase reporter mRNA in rabbit reticulocyte lysate by 3 μM DCC protein (% inhibition of translation) [5]: 92
